Data on one molecule can be found in US20250019435A1 (ALBERT EINSTEIN COLLEGE OF MEDICINE, published 2025).

A word on the Kd: it is the equilibrium constant for the complex coming apart. Read a low Kd as a tighter complex. Usually koff stands for the rate constant with which the complex falls apart. Higher therefore signals fast dissociation. Usually kon stands for the second-order rate constant of association.

Experiment [1] addresses T1, D0-deleted KIR2DL5 expressed on 3T3 cells (human, UniProt Q8N109 119-375).
T1 construct: the signal peptide 1-21 is left out; also called KIR2DL5 dD0; DO-deleted KIR2DL5
Description: flow cytometry, transduced 3T3 cells. As for the experimental part: FIG. 8A-8D: Generation and characterization of anti-KIR2DL5-specific mAbs. (A) The specificity of anti-KIR2DL5 mAb clone F8B30. 3T3 cells transduced with indicated KIR family members were stained with 5 μg/mL of F8B30 (open) or mIgG1 (shaded). (B) 3T3 cells transduced with DO-deleted (KIR2DL5 dD0) or D2-deleted KIR2DL5 (KIR2DL5 dD2) were stained with 5 μg/mL of clone F8B30 or commercial clone UP-R1. (C) Anti-KIR2DL5 mAb clone F8B30 recognized different KIR2DL5A and 5B alleles. 3T3 cells transduced with indicated alleles were stained with 5 μg/mL of F8B30 or UP-R1 (open) or mIgG1 (shaded). (D) Anti-KIR2DL5 mAb clone F8B30 recognized different KIR2DL5 DO domain variants. 3T3 cells transduced with indicated DO variants were stained with 0.025 μg/mL of F8B30 or UP-R1 (open) or mIgG1 (shaded). In A-D, data are representative of 2 independent experiments.
For orientation: Flow cytometry measures light scatter and fluorescence of single cells or particles in a stream.

For a further experiment, the target named is T2, Y298F/Y328F.
T2 construct: also called KIR2DL5 Y298F/Y328F (ITIM and ITSM mutant) on transduced primary NK cells
T2 sequence (receptor chain, as listed by the source Y298F Y328F Y298F Y328F limits assumed): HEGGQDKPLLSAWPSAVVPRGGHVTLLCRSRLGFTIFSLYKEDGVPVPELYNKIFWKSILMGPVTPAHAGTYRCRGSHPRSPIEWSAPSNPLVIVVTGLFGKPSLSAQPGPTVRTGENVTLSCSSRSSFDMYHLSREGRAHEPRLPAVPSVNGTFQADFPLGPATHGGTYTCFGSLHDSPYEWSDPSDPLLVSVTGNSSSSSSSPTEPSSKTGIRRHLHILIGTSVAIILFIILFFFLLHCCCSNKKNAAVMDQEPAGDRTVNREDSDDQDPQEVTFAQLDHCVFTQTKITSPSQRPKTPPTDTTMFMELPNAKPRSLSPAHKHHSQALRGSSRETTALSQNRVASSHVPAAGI
Description: flow cytometry, transduced primary NK cells. Here is the method: (§1) The KIR2DL5⁻ primary NK cells were transduced with WT KIR2DL5 or the indicated mutants, and then examined for protein expression with F8B30 (open) or mIgG1 (shaded). NC, negative control. Data are representative of 2 independent experiments. (B and C) Transduced primary NK cells were treated with (+) or without (−) pervanadate (VO₄) for 5 minutes. Cell lysates were immunoprecipitated with anti-KIR2DL5 antibodies. Phospho-tyrosine (4G10), SHP-1, SHP-2, and total KIR2DL5 were detected by immunoblots (B). Quantification of p-Tyr, SHP-1, and SHP-2 association with WT or mutant KIR2DL5 in VO₄-treated NK cells (C). WCL, whole-cell lysates. (D) Representative imaging of cell conjugates acquired upon the indicated transduced primary NK and PVR/Raji cell contact followed by staining with anti-KIR2DL5 mAb and DAPI. Scale bars: […]. (E) Lysis of scramble control or PVR^KO A427 (top) and Jurkat (bottom) by WT or mutant KIR2DL5-transduced primary NK cells at the indicated E/T ratios. Data are mean for duplicate measurements and representative of 3 independent experiments with 3 different donors. In A, and B, data are representative of 3 independent experiments. *P<0.05, **P<0.01, ***P<0.001, ****P<0.0001, by 1-way ANOVA (C), or paired Student's t test (D).
(§2) Primary NK cell transduction. KIR2DL5 wild type and variants of ITIM/ITSM expressed on the surface of KIR2DL5⁻ primary NK cells were introduced by lentiviral transduction. Lentivirus was produced in HEK293T cells cotransfected with psPAX, pMD2.G, and a lentiviral backbone pSin vector (a gift from the Alec Zhang laboratory, Department of Physiology, University of Texas Southwestern Medical Center, Dallas, Texas, USA) containing the full-length gene sequence of KIR2DL5A*001 using jetPRIME reagents (Polyplus Transfection). Virus-containing supernatant was harvested 48-72 hours after transfection and filtered through a 0.45 µm filter. Non-tissue-culture-treated plates were coated with retronectin, and virus supernatant was then incubated on the surface of plates at 2,000 g for 120 minutes at 37° C. […]

For a further experiment, the target named is T3, Y298F.
T3 construct: also called KIR2DL5 Y298F (ITIM mutant) on transduced primary NK cells
T3 sequence (receptor chain, as listed by the source Y298F Y298F limits assumed): as the sequence (receptor chain, as listed by the source Y298F Y328F Y298F Y328F limits assumed) above, with F307Y counted along it
Put plainly: flow cytometry, transduced primary NK cells. Here is the method: as §1, §2

Another experiment concerns the target T4, Y328F.
T4 construct: also called KIR2DL5 Y328F (ITSM mutant) on transduced primary NK cells
Put plainly: flow cytometry, transduced primary NK cells. Here is the method: as §1, §2

Experiment [2] concerns the target T5, KIR2DL5-Ig fusion protein (KIR2DL5 extracellular domain fused to human IgG1 Fc) (human, UniProt Q8N109 22-240).
T5 construct: A D0-only fusion (H22-A128) also exists; also called KIR2DL5-human Ig fusion protein; KIR2DL5 DO-D2-Ig; not shown: human IgG1 Fc tag
Put plainly: BLI, Octet RED96; KIR2DL5-Ig captured on anti-human Fc biosensors, mAb in solution; global 1:1 fit. As for the experimental part: Biolayer interferometry. The affinities of anti-KIR2DL5 mAbs were analyzed by biolayer interferometry using an Octet RED96 system (ForteBio, Pall LLC). Briefly, anti-human Fc capture biosensors (ForteBio, Pall LLC) were preloaded with KIR2DL5-Ig and then dipped into a solution containing mAb at 2-fold serial dilutions (from 200 to 1.5 μg/mL). Data were analyzed using Forte Pall (Port Washington, New York, USA) software 9.0. The global data fitting to a 1:1 binding model was used to estimate values for the Kₒₙ (association rate constant), Koff (dissociation rate constant), and KD (equilibrium dissociation constant).
Background: In BLI a coated tip is dipped into the sample, and binding shifts an interference pattern.

T5 sequence (Q8N109 22-240): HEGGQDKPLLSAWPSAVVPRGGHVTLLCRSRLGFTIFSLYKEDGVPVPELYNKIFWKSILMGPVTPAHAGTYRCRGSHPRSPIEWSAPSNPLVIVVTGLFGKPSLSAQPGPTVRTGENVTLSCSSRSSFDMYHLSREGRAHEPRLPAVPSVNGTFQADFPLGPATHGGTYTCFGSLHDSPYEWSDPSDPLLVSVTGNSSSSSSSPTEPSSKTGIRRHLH
T1 sequence (Q8N109 119-375, stated change not applied): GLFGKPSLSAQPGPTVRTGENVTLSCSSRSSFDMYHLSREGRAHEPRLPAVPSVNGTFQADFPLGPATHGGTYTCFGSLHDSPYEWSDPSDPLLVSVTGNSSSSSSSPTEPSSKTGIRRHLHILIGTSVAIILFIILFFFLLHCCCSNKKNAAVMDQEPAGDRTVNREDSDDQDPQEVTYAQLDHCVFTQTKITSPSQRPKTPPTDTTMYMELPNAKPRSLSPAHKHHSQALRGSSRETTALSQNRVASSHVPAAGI
T4 sequence (receptor chain, as listed by the source Y328F Y328F limits assumed): as the sequence (receptor chain, as listed by the source Y298F Y328F Y298F Y328F limits assumed) above, with F277Y counted along it

B1: anti-KIR2DL5 mAb clone F8B30 (antibody, V domains shown)
VH: QIQLVQSGPELKKPGETVKISCKASGYTFTDYSMHWVKQAPGKGLKWMGWINTETGGPTYADDFKGRFAFSLETSATTAYLQINNLKNEDTATYFCSRDVDLYFDYWGQGTTLTVS
VL: DIQMTQSPASLSASVGETVTITCRTSENIYSYLAWYQQKQGKSPQLLVYNAKTLVEGVPSRFSGSGSGTQFSVKINSLQPEDFGNYYCQHHYGIPFTFGGGTKLEIK
notes: also called F8B30 (IgG1, κ)
Regarding B1, the binding result in experiment [1] is listed as “no binding (tested: 5 µg/mL)”; with Y298F/Y328F, “binds”; with Y298F, “binds”; with Y328F, “binds”. Besides, in experiment [2], the Kd was 0.723 nM. For the same molecule, in experiment [2], the koff amounted to 0.000444 s⁻¹. For the same molecule, the kon in experiment [2] worked out at 615000 M⁻¹ s⁻¹.
